Consider seven substances from article PMC9024677.

For assay [1], the target named is bovine cardiac α-actin (bovine) (UniProt Q3ZC07). As to the kind of experiment: pyrene-actin polymerization assay; 5 μM actin with pyrene-labelled skeletal muscle actin (20:1) in G-buffer; polymerization started with 2 mM MgCl2 (and 0.05 M KCl); fluorescence increase followed over time.
Assay [2] shares this target. The assay is described as follows: other fluorescence titration; critical concentration of polymerization (monomer to filament): 0.1 to 10 μM c-actin with 5% pyrene-actin, 2 mM MgCl2 and 0.05 M KCl overnight; steady-state fluorescence against actin concentration.
Assay [3] addresses human cardiac α-actin mutant p.A295S (human). As to the kind of experiment: pyrene-actin polymerization assay; 5 μM actin with pyrene-labelled skeletal muscle actin (20:1) in G-buffer; polymerization started with 2 mM MgCl2 (and 0.05 M KCl); fluorescence increase followed over time.
In assay [4] the target is deoxyribonuclease I (DNase I) (bovine) (UniProt P00639).
Chain of deoxyribonuclease I (DNase I) (bovine) (P00639 23-282): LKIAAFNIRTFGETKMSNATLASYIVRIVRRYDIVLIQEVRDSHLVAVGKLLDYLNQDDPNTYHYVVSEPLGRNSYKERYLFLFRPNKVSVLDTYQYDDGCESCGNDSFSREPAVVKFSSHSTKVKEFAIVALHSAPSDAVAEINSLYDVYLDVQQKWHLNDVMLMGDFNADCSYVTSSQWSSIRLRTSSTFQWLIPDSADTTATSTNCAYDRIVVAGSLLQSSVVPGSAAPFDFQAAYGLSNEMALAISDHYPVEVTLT
Assay [5] has as its target human cardiac α-actin mutant p.A295S (human). As to the kind of experiment: other fluorescence titration; critical concentration of polymerization (monomer to filament): 0.1 to 10 μM c-actin with 5% pyrene-actin, 2 mM MgCl2 and 0.05 M KCl overnight; steady-state fluorescence against actin concentration.
Assay [6] concerns the target human cardiac α-actin mutant p.E361G (human). The assay is described as follows: pyrene-actin polymerization assay; 5 μM actin with pyrene-labelled skeletal muscle actin (20:1) in G-buffer; polymerization started with 2 mM MgCl2 (and 0.05 M KCl); fluorescence increase followed over time.
Assay [7] has the same target. The assay is described as follows: other fluorescence titration; critical concentration of polymerization (monomer to filament): 0.1 to 10 μM c-actin with 5% pyrene-actin, 2 mM MgCl2 and 0.05 M KCl overnight; steady-state fluorescence against actin concentration.
Assay [8] has as its target human cardiac α-actin mutant p.R312H (human). As to the kind of experiment: pyrene-actin polymerization assay; 5 μM actin with pyrene-labelled skeletal muscle actin (20:1) in G-buffer; polymerization started with 2 mM MgCl2 (and 0.05 M KCl); fluorescence increase followed over time.
Assay [9] shares this target. The assay is described as follows: other fluorescence titration; critical concentration of polymerization (monomer to filament): 0.1 to 10 μM c-actin with 5% pyrene-actin, 2 mM MgCl2 and 0.05 M KCl overnight; steady-state fluorescence against actin concentration.
Assay [10] addresses human cardiac α-actin variant p.R312K (human). The assay is described as follows: pyrene-actin polymerization assay; 5 μM actin with pyrene-labelled skeletal muscle actin (20:1) in G-buffer; polymerization started with 2 mM MgCl2 (and 0.05 M KCl); fluorescence increase followed over time.
Assay [11] has the same target. As to the kind of experiment: other fluorescence titration; critical concentration of polymerization (monomer to filament): 0.1 to 10 μM c-actin with 5% pyrene-actin, 2 mM MgCl2 and 0.05 M KCl overnight; steady-state fluorescence against actin concentration.
Assay [12] addresses human wild type cardiac α-actin (recombinant) (human) (UniProt P68032). As to the kind of experiment: pyrene-actin polymerization assay; 5 μM actin with pyrene-labelled skeletal muscle actin (20:1) in G-buffer; polymerization started with 2 mM MgCl2 (and 0.05 M KCl); fluorescence increase followed over time.
Assay [13] has the same target. As to the kind of experiment: other fluorescence titration; critical concentration of polymerization (monomer to filament): 0.1 to 10 μM c-actin with 5% pyrene-actin, 2 mM MgCl2 and 0.05 M KCl overnight; steady-state fluorescence against actin concentration.
The target in assay [14] is human cardiac α-actin mutant p.A295S (human).
Assay [15] has as its target human cardiac α-actin mutant p.E361G (human).
Assay [16] addresses human cardiac α-actin mutant p.R312H (human).
For assay [17], the target named is bovine cardiac α-actin (bovine) (UniProt Q3ZC07).
In assay [18] the target is human wild type cardiac α-actin (recombinant) (human) (UniProt P68032).

“bovine cardiac α-actin (from UniProt Q3ZC07 1-377) (natural protein)” came in with a half time of polymerization (t 1/2) in assay [1] of 2.7 min. This substance gave a critical concentration of polymerization (Cc) in [2] of 0.21 µM.

Consider “human cardiac α-actin mutant p.A295S (natural protein)”, for which the half time of polymerization (t 1/2) in [3] amounted to 8.5 min. The inhibition of DNase I activity (hyperchromicity assay), 3.2 μM DNase I pre-incubated with zero to 6.4 μM G-actin; inhibitory capacity against wt c-α-actin in assay [4] amounted to 33%. This substance also gave a critical concentration of polymerization (Cc) in assay [5] of 0.4 µM.

“human cardiac α-actin mutant p.E361G (natural protein)” displayed a half time of polymerization (t 1/2) in assay [6] of 1.6 min. Besides, the critical concentration of polymerization (Cc) in assay [7] was 0.2 µM.

For “human cardiac α-actin mutant p.R312H (natural protein)”, in [8], the half time of polymerization (t 1/2) stood at 10.8 min. The substance also registered a critical concentration of polymerization (Cc) in assay [9] of 0.7 µM.

In turn, “human cardiac α-actin variant p.R312K (natural protein)” showed a half time of polymerization (t 1/2) in assay [10] of 3.08 min. The critical concentration of polymerization (Cc) in assay [11] came out at 0.21 µM.

In the case of “human wild type cardiac α-actin (recombinant) (from UniProt P68032 1-377) (natural protein)”, the half time of polymerization (t 1/2) in assay [12] amounted to 2.5 min. Moreover, the inhibition of DNase I activity (hyperchromicity assay), 3.2 μM DNase I pre-incubated with zero to 6.4 μM G-actin; concentration for complete inhibition against skeletal muscle actin in assay [4] (scale: fold higher concentration than skeletal muscle actin) was determined as 3. The critical concentration of polymerization (Cc) in assay [13] was found to be 0.2 µM.

Turning to “rabbit skeletal muscle myosin subfragment-1 (domain or fragment)”, the apparent KM of the myosin-S1 ATPase stimulation by F-c-actin (double reciprocal plot), pCa 4.3, without cTm/cTn in assay [14] came out at 0.966 µM; in [15], 0.075 µM; in assay [16], 0.096 µM; in [17] it was 0.081 µM; in assay [18], 0.165 µM. Also, the apparent KM of the myosin-S1 ATPase stimulation by F-c-actin decorated with cTm/cTn (6:1:1), pCa 4.3 in [14] was 3.31 µM; in assay [15], 0.173 µM; in assay [16] it was 0.0243 µM; in assay [18], 0.217 µM.
